# From patent US20220332844A1 (ORIONIS BIOSCIENCES, published 2022)
# T1: mouse FAP on transiently transfected HEK293T cells (pMET7 FLAG-mFAP) (mouse, UniProt P97321 1-761)
# T1 construct: whole, on cells; not shown: FLAG tag of the plasmid pMET7 FLAG-mFAP
# T1 sequence (looked up): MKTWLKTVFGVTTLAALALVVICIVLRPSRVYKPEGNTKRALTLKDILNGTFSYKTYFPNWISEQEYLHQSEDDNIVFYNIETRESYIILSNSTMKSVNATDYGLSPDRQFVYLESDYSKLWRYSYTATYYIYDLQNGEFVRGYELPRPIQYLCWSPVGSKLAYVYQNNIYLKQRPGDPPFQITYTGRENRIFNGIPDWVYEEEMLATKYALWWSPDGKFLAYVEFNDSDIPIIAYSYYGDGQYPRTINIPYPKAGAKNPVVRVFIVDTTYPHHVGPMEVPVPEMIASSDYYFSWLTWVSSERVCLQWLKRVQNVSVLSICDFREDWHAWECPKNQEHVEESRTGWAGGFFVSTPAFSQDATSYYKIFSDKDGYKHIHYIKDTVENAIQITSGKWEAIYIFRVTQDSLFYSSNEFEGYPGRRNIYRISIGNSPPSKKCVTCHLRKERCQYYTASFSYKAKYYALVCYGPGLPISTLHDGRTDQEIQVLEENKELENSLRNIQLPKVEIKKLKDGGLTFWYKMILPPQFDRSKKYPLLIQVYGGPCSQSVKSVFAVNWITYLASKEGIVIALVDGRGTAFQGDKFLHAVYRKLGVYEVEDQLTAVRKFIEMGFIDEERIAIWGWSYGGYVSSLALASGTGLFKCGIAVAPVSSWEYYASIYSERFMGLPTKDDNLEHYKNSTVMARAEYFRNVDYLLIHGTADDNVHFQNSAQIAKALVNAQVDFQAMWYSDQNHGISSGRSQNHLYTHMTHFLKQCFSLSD
# Target: T1, mouse FAP on transiently transfected …
# Experiment: FACS, serial dilution of purified VHH on transfected HEK293T cells
row,Binder,binding result
1,3PE12 (VHH) VHH: QVQLQESGGGLVQPGGSLRLSCAASGSTFSGNAMAWYRQAPGKRRELVAGISGGGVTNYPDSVKGRFTISRDNAKNTVYLQMSSLKPEDTAVYYCNLWPPRVSPGGGVYWGQGTQVTVSS,binds
2,3PE57 (VHH) VHH: QVQLQESGGGLVQPGGSLRLSCAASGSTFSVNAVAWYRQAPGKRRELVAGISGGGVTNYPDSVKGRFTISRDNAKNTVYLQMSSLKPEDTAVYYCNLWPPRASPDGRVYWGQGTQVTVSS,binds

# Results, then the binder that gave them:
row,binding result,Binder
1,binds,3PE42 (VHH) VHH: QVQLQESGGGLVQPGESLRLSCAVSGSTSSMNAMAWYRQAPGKRRELVAGISGGGATNYPDSVKGRFTISRDNAKNTVYLQMSSLKPEDTAVYYCNLWPPRASPGGGVYWGQGTQVTVSS
2,binds,3PE93 (VHH) VHH: QVQLQESGGGLVQPGESLRLSCAVSGSTSSMNAMAWYRQAPGKRRELVAGISGGGATNYPDSMKGRFTISRDNAKNTVYLQMSSLKPEDTAVYYCNLWPPRASPGGGVYWGQGTQVTVSS
